# Results from the supplement of paper PMC10899765.
# System: MCF10A
# Experiment: percent viability (nuclei count relative to siNT); higher = more viable cells
# Settings: 20 nM; 72 h
# Protocol: (§1)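 After 72 h, cells were fixed and stained with Hoechst and anti-fibrillarin, and nucleoli per nucleus were counted with CellProfiler. Values are plate-adjusted percent effect for the one-nucleolus and 5+ nucleoli phenotypes, normalised to siNT (0%) and to the positive controls siNOL11 or siKIF11 (100%), as the mean of biological triplicates. Percent viability is the nuclei count relative to siNT.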
row,Sequence,percent viability
1,AGGCAGGGGCUGGUGCUGGGCGGG [hsa-miR-4763-3p],52.2%
2,AAAAGUAAUUGCGGUCUUUGGU [hsa-miR-548j],85.9%
3,CAGGGCCCUGGCUUUAGCAGA [hsa-miR-7160-3p],41.3%
4,UGGGGAAGGCUUGGCAGGGAAGA [hsa-miR-6780b-5p],25.6%
5,CAGCCACAACUACCCUGCCACU [hsa-miR-449b-3p],71.9%
6,UCCUGUCCCUGUCUCCUACAG [hsa-miR-6748-3p],47%
7,ACCGAAGACUGUGCGCUAAUCU [hsa-miR-4671-5p],99.3%
8,AGAUCGACCGUGUUAUAUUCGC [hsa-miR-369-5p],53%
9,UAGGGGAAAAGUCCUGAUCCGG [hsa-miR-6783-5p],78.4%
10,AGGAUAGGAAGAAUGAAGUGCU [hsa-miR-5191],40.6%
11,CUGGGCCCGCGGCGGGCGUGGGG [hsa-miR-6724-5p],74.9%
12,CUCAUUUAAGUAGUCUGAUGCC [hsa-miR-5696],125%
13,CUGCCUGUUCUUCCACUCCAG [hsa-miR-6514-3p],9.75%
14,CCGGUCCCAGGAGAACCUGCAGA [hsa-miR-4746-5p],45.1%
15,AAAGAUCUGGAAGUGGGAGACA [hsa-miR-3156-5p],43.6%
16,UGCAAAAGUAAUUGCAGUUUUUG [hsa-miR-548x-5p],63%
17,AGGGACUUUUGGGGGCAGAUGUG [hsa-miR-365a-5p],56%
18,UCUCUGGUCUUGCCACCCCAG [hsa-miR-6824-3p],26.4%
19,UGCCAACCGUCAGAGCCCAGA [hsa-miR-5189-3p],59.9%
20,CAAAUGGACAGGAUAACACCU [hsa-miR-4694-3p],35.9%

row,Sequence,percent viability
1,ACCUGGGUUGUCCCCUCUAG [hsa-miR-6742-3p],90.1%
2,AAAGUGCUGCGACAUUUGAGCGU [hsa-miR-372],64.2%
3,UUUAAGAAAACACCAUGGAGAU [hsa-miR-3658],148%
4,GGGAGGUGUGAUCUCACACUCG [hsa-miR-3689d],9.66%
5,ACUGGACUUGGAGUCAGAAGAGUGG [hsa-miR-378c],22.4%
6,UGGCCAAAAAGCAGGCAGAGA [hsa-miR-3926],31.6%
7,AACAUUCAUUGUUGUCGGUGGGU [hsa-miR-181d],91.1%
8,AAAGGUAAUUGCAGUUUUUCCC [hsa-miR-570-5p],95.2%
9,CUUCCCCCCAGUAAUCUUCAUC [hsa-miR-3679-3p],88.6%
10,UGUCUCUCGCCCUUGGCCUUAG [hsa-miR-6895-3p],19.4%
11,UCUCUGGUCUUUCCUUGACAG [hsa-miR-6764-3p],27.5%
12,UGUAGUGUUUCCUACUUUAUGGA [hsa-miR-142-3p],82.8%
13,AGCACACUGAGCGAGCGGAC [hsa-miR-8064],44.2%
14,UAUGGCUUUUUAUUCCUAUGUGA [hsa-miR-135a-5p],69%
15,AAAAGCUGGGUUGAGAGGGU [hsa-miR-320c],64.7%
16,CAUUGCACUUGUCUCGGUCUGA [hsa-miR-25-3p],96.4%
17,CCAGUGACUGAGCUGGAGCCA [hsa-miR-5190],31.7%
18,UGGAAUGUAAGGAAGUGUGUGG [hsa-miR-206],48.8%
19,ACACUGUCCCCUUCUCCCCAG [hsa-miR-6760-3p],92.8%
20,UACAGUACUGUGAUAACUGAA [hsa-miR-101-3p],86%

row,Sequence,percent viability
1,ACAGGCACGACUGGUUUGGCA [hsa-miR-6715b-5p],14.8%
2,CAACGGAAUCCCAAAAGCAGCUG [hsa-miR-191-5p],29.2%
3,ACCCCACUCCUGGUACC [hsa-miR-4286],48.7%
4,CCUAGUAGGUGUCCAGUAAGUGU [hsa-miR-325],58%
5,UAAAGAGCCCUGUGGAGACA [hsa-miR-1276],41.4%
6,CCUGACCCACCCCCUCCCGCAG [hsa-miR-4750-3p],95.7%
7,CAAAGCGCUCCCCUUUAGAGGU [hsa-miR-518b],27.8%
8,CUCUAGAGGGAAGCACUUUCUG [hsa-miR-520c-5p],82.7%
9,ACCCGUCCCGUUCGUCCCCGGA [hsa-miR-1247-5p],116%
10,AGCAGGGCUGGGGAUUGCA [hsa-miR-6132],20.5%
11,UACUAACUGCAGAUUCAAGUGA [hsa-miR-4637],140%
12,AGACCAUGGGUUCUCAUUGU [hsa-miR-591],84.8%
13,UGGCUUCUCUUGCACACCCAG [hsa-miR-6815-3p],19.9%
14,UGGGAGCUAAGCUAUGGGUAU [hsa-miR-5591-5p],13.9%
15,UCUGGGGUCUUGGGCCAUC [hsa-miR-7155-5p],10.2%
16,AUCGCUUUACCAUUCAUGUU [hsa-miR-4790-5p],34.2%
17,CAGUGCCUCGGCAGUGCAGCCC [hsa-miR-33b-3p],107%
18,GGGGUAUUGUUUCCGCUGCCAGG [hsa-miR-503-3p],40.1%
19,GUGCGUGGUGGCUCGAGGCGGGG [hsa-miR-6821-5p],82.1%

# System: MCF10A
# Experiment: 5+ nucleoli phenotype percent effect (relative to siNT 0% and siKIF11 100%); higher = more cells with five or more nucleoli
# Settings: 20 nM; 72 h
# Protocol: as §1
row,Sequence,5+ nucleoli phenotype percent effect
1,AGGCAGGGGCUGGUGCUGGGCGGG [hsa-miR-4763-3p],5.7%
2,AAAAGUAAUUGCGGUCUUUGGU [hsa-miR-548j],17%
3,CAGGGCCCUGGCUUUAGCAGA [hsa-miR-7160-3p],-4.58%
4,UGGGGAAGGCUUGGCAGGGAAGA [hsa-miR-6780b-5p],-35.6%
5,CAGCCACAACUACCCUGCCACU [hsa-miR-449b-3p],1.67%
6,UCCUGUCCCUGUCUCCUACAG [hsa-miR-6748-3p],17%
7,ACCGAAGACUGUGCGCUAAUCU [hsa-miR-4671-5p],14.8%
8,AGAUCGACCGUGUUAUAUUCGC [hsa-miR-369-5p],3.93%
9,UAGGGGAAAAGUCCUGAUCCGG [hsa-miR-6783-5p],18.2%
10,AGGAUAGGAAGAAUGAAGUGCU [hsa-miR-5191],-7.65%
11,CUGGGCCCGCGGCGGGCGUGGGG [hsa-miR-6724-5p],19.6%
12,CUCAUUUAAGUAGUCUGAUGCC [hsa-miR-5696],-2.38%
13,CUGCCUGUUCUUCCACUCCAG [hsa-miR-6514-3p],-62.1%
14,CCGGUCCCAGGAGAACCUGCAGA [hsa-miR-4746-5p],8.72%
15,AAAGAUCUGGAAGUGGGAGACA [hsa-miR-3156-5p],45.1%
16,UGCAAAAGUAAUUGCAGUUUUUG [hsa-miR-548x-5p],-24.2%
17,AGGGACUUUUGGGGGCAGAUGUG [hsa-miR-365a-5p],58.6%
18,UCUCUGGUCUUGCCACCCCAG [hsa-miR-6824-3p],-18.8%
19,UGCCAACCGUCAGAGCCCAGA [hsa-miR-5189-3p],-12%
20,CAAAUGGACAGGAUAACACCU [hsa-miR-4694-3p],-11.7%
21,ACCUGGGUUGUCCCCUCUAG [hsa-miR-6742-3p],73.9%
22,AAAGUGCUGCGACAUUUGAGCGU [hsa-miR-372],52.4%
23,UUUAAGAAAACACCAUGGAGAU [hsa-miR-3658],18.1%
24,GGGAGGUGUGAUCUCACACUCG [hsa-miR-3689d],10.8%
25,ACUGGACUUGGAGUCAGAAGAGUGG [hsa-miR-378c],-4.56%
26,UGGCCAAAAAGCAGGCAGAGA [hsa-miR-3926],0.491%
27,AACAUUCAUUGUUGUCGGUGGGU [hsa-miR-181d],12.5%
28,AAAGGUAAUUGCAGUUUUUCCC [hsa-miR-570-5p],56.8%
29,CUUCCCCCCAGUAAUCUUCAUC [hsa-miR-3679-3p],-16.6%
